The values below come from paper PMC9265643.

Several values for one entry are separate records, joined by “and”; a condition that tells them apart may be missing. Equal values may be shown once.

Test [1] concerns the target non-myristoylated Gtα/Giα chimera (European robin cone Gtα with residues 220-298 replaced by the corresponding region of bovine Giα1), His6-SUMO tag removed (European robin | bovine). Put plainly: SPR; Biacore 3000; Gtα/Giα chimera (myristoylated or non-myristoylated) amine-coupled on CM5 chip, 500 nM ErCry4a-497 injected; 10 mM HEPES/NaOH pH 7.4, 150 mM NaCl, 10 mM MgCl2, 0.005% Tween-20, 3.4 mM EDTA; fit to a Langmuir binding model, apparent KD.

The target in test [2] is myristoylated Gtα/Giα chimera (European robin cone Gtα with residues 220-298 replaced by the corresponding region of bovine Giα1) (European robin | bovine). The test is described as above.
For test [3], the target named is non-myristoylated Gtα/Giα chimera (European robin cone Gtα with residues 220-298 replaced by the corresponding region of bovine Giα1), His6-SUMO tag removed (European robin | bovine). The test is described as above. This is another data set of the same source.
Test [4] deals with ErGtα-mRuby3 (wildtype European robin cone G protein α-subunit with mRuby3 fused to its C-terminus) (European robin). Description: FRET or BRET; acceptor photobleaching FRET in transiently co-transfected QNR/K2 quail neuroretina cells, fixed 48 h after transfection; donor mClover3, acceptor mRuby3; FRET efficiency in percent. Background: BRET reads energy transfer from a luciferase to a nearby fluorophore.

For test [5], the target named is myristoylated Gtα/Giα chimera (European robin cone Gtα with residues 220-298 replaced by the corresponding region of bovine Giα1) (European robin | bovine). Description: SPR; Biacore 3000; Gtα/Giα chimera (myristoylated or non-myristoylated) amine-coupled on CM5 chip, ErCry variant injected; 10 mM HEPES/NaOH pH 7.4, 150 mM NaCl, 10 mM MgCl2, 0.005% Tween-20, 3.4 mM EDTA; control surface Ulp1 (activation/deactivation cycle for ErCry1a); global fit to a two-state-reaction model, apparent KD = kd1/ka1. On the technique in general: Surface plasmon resonance follows binding to a sensor surface in real time, without labels.

In test [6] the target is non-myristoylated Gtα/Giα chimera (European robin cone Gtα with residues 220-298 replaced by the corresponding region of bovine Giα1), His6-SUMO tag removed (European robin | bovine). Described as above.
For test [7] the target is unchanged. Described as above. The source holds these as a separate data set.
The target in test [8] is rhodopsin (dark-adapted) (Bos taurus) (UniProt P02699). Description: SPR. The following applies: cited from earlier work.
UniProt P02699, sequence (P02699 whole entry): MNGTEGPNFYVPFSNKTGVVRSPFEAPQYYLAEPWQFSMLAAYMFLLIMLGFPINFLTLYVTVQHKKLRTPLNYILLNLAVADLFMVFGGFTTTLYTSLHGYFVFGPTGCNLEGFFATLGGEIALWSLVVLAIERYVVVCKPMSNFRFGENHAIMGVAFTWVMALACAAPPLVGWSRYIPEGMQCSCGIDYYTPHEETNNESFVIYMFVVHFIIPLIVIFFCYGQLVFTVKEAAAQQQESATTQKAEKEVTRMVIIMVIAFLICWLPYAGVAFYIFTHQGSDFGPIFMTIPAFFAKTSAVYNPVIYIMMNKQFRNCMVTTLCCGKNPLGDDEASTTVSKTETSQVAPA

For “C-terminally truncated European robin cryptochrome 4a (ErCry4a-497) (domain or fragment)”, the Kd in test [1] is 360 nM. Moreover, in test [2], the Kd is 200 nM, the koff was determined as 0.000915 s⁻¹ and the kon was 5350 M⁻¹ s⁻¹. Besides, in test [3], the Kd stood at 340 nM, the koff amounted to 0.00305 s⁻¹ and the kon came out at 6510 M⁻¹ s⁻¹.

Substance “mClover3-ErCry4 (ErCry4a with mClover3 fused to its N-terminus) (natural protein)” showed an FRET efficiency in test [4] of 49.7%.

“European robin cryptochrome 1a (ErCry1a), apo form without bound FAD (natural protein)”: in test [5], the Kd turned out to be 400 nM; the ka1 (two-state-reaction model, forward reaction rate) was determined as 130000 M⁻¹ s⁻¹; the kd1 (two-state-reaction model, backward reaction rate) was 0.0527 s⁻¹.

The substance “mClover3-ErCry4, truncated after aa 497 (domain or fragment)” displayed an FRET efficiency in test [4] of 49.5%.

Turning to “European robin cryptochrome 1b (ErCry1b), apo form without bound FAD (natural protein)”, in test [5], the Kd was determined as 1530 nM; the ka1 (two-state-reaction model, forward reaction rate) amounted to 21700 M⁻¹ s⁻¹; the kd1 (two-state-reaction model, backward reaction rate) amounted to 0.0332 s⁻¹.

Regarding “European robin cryptochrome 4a (ErCry4a), purified recombinant, as used in SPR (natural protein)”, in test [5], the Kd is 200 nM and 290 nM; the ka1 (two-state-reaction model, step A + B to AB) is 3320 M⁻¹ s⁻¹; the kd1 (two-state-reaction model, step AB to A + B) came to 0.000674 s⁻¹. Also, in test [6], the Kd turned out to be 32 nM; the ka1 (two-state-reaction model, step A + B to AB) turned out to be 343000 M⁻¹ s⁻¹; the kd1 (two-state-reaction model, step AB to A + B) is 0.011 s⁻¹. For the same substance, the Kd in test [7] stood at 35 nM.

Consider transducin (from UniProt P04695), for which the Kd in test [8] was 360 nM.

Usually koff stands for a measure of how fast the partners let go of each other. What is called kon is the second-order rate constant of association.
